Molecular target: T1, HDAC1 (Homo sapiens, UniProt Q13547)
T1 construct: made in house
Assay: Immunoprecipitation of GFP-HDART with Flag-HDAC in 293 cells
Type: binding
Conditions: co-transfected 293 cells; anti-FLAG immunoprecipitation
Experimental: Flag-HDACs expression vectors capable of expressing different types of HDAC (1, 3, 4 or 6) and a GFP-HDART expression vector were, respectively, co-transfected with 293 cells in the same manner as in Example 2, and cell extracts were prepared 24 hours after the transfection. The respective cell extracts were incubated with an anti-Flag antibody, followed by immunoprecipitation. The resulting immunoprecipitate was isolated with SDS-PAGE and an isolated pattern was transferred to a membrane, followed by immunoblotting with use of an anti-Flag antibody or […]. For reference, in order to confirm the expression of GFP-HDART protein in the respective cells, individual samples prior to the immunoprecipitation were similarly developed with SDS-PAGE to conduct immunoblotting with use of an anti-GFP antibody. […] The kinds of HDAC's from the left side of the figure are as follows: lane 1, HDAC1; lane 3, HDAC3; lane 4, HDAC4; and lane 5, HDAC6. It will be noted that lane 2 is for the sample in which GFP-HDART alone was expressed.

T1 sequence (Q13547 whole entry, species assumed): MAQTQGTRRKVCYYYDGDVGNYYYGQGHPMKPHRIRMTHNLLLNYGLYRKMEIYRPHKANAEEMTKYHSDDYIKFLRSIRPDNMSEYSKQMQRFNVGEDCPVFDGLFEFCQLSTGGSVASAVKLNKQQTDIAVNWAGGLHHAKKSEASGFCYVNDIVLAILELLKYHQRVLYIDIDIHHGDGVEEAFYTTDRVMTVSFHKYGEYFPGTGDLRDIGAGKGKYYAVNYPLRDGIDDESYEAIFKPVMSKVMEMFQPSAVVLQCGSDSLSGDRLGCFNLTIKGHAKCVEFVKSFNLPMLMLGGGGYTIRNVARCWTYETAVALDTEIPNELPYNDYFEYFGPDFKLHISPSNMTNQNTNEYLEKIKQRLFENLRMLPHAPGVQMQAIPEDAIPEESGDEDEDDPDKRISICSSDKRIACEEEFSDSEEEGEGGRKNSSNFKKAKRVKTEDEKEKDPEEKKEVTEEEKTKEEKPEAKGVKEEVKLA

B1: HDART: HDAC associated repressor TPR protein, 855 amino acids, SEQ ID NO: 2; transcription repressing factor, used as fusions or expressed from vector (protein, listed as Homo sapiens)
chain: MVVMARLSRPERPDLVFEEEDLPYEEEIMRNQFSVKCWLRYIEFKQGAPKPRLNQLYERALKLLPCSYKLWYRYLKARRAQVKHRCVTDPAYEDVNNCHERAFVFMHKMPRLWLDYCQFLMDQGRVTHTRRTFDRALRALPITQHSRIWPLYLRFLRSHPLPETAVRGYRRFLKLSPESAEEYIEYLKSSDRLDEAAQRLATVVNDERFVSKAGKSNYQLWHELCDLISQNPDKVQSLNVDAIIRGGLTRFTDQLGKLWCSLADYYIRSGHFEKARDVYEEAIRTVMTVRDFTQVFDSYAQFEESMIAAKMETASELGREEEDDVDLELRLARFEQLISRRPLLLNSVLLRQNPHHVHEWHKRVALHQGRPREIINTYTEAVQTVDPFKATGKPHTLWVAFAKFYEDNGQLDDARVILEKATKVNFKQVDDLASVWCQCGELELRHENYDEALRLLRKATALPARRAEYFDGSEPVQNRVYKSLKVWSMLADLEESLGTFQSTKAVYDRILDLRIATPQIVINYAMFLEEHKYFEESFKAYERGISLFKWPNVSDIWSTYLTKFIARYGGRKLERARDLFEQALDGCPPKYAKTLYLLYAQLEEEWGLARHAMAVYERATRAVEPAQQYDMFNIYIKRAAEIYGVTHTRGIYQKAIEVLSDEHAREMCLRFADMECKLGEIDRARAIYSFCSQICDPRTTGAFWQTWKDFEVRHGNEDTIKEMLRIRRSVQATYNTQVNFMASQMLKVSGSATGTVSDLAPGQSGMDDMKLLEQRAEQLAAEAERDQPLRAQSKILFVRSDASREELAELAQQVNPEEIQLGEDEDEDEMDLEPNEVRLEQQSVPAAVFGSLKED
With B1 the “interaction with HDAC1” value was “exhibits interaction”.
